The source of these data is patent US20260166140A1, “Combinations Involving Epidermal Growth Factor Receptor Tyrosine Kinase Inhibitors For the Treatment of Cancer” (AstraZeneca AB, priority 2022, published 2026).

Substitutions are numbered along the chain they refer to.

Data set [1] relates to multiple additional solid tumor indications. The settings on record: cited from earlier work.
Data set [2] concerns H1975 cells. Kind of data set: Internalization of AF647-labeled antibodies, live cell confocal fluorescence microscopy. The note with it: for internalization profile: single-arm control antibodies. The class given is cell-based. The procedure:
(§1) Internalization kinetics of AlexaFluor647 (AF647) primary-labeled DuetMabs: RAA22/B09 and QD6/B09 antibodies was assessed in vitro using the EGFR and c-MET expressing cell line, H1975. Each antibody was pre-bound to cells and antibody translocation from cell surface to cytoplasm was then monitored using live cell confocal fluorescence microscopy. Both antibodies localized primarily on the cell surface before (T=0) subjecting to internalization conditions and were translocated to the cytoplasm area after 1 hour (data not shown). Kinetic images were taken every 5 min over the time course of internalization and were processed using a quantitative algorithm to determine internalization kinetic constants and half-times.
To evaluate the mode of antibody internalization and to investigate contribution of each arm to overall internalization of the DuetMabs, we evaluated internalization of single-arm specific control antibody molecules, QD6/IgG and B09/IgG, against duet QD6/B09, and RAA22/IgG and B09/IgG against duet RAA22/B09 in H1975 cells, which express both EGFR and c-MET. Since only one arm is specific for the target receptor, the control antibody can only internalize via one receptor eliminating dual receptor targeting and cross-linking as mode of internalization.

Data set [3] has as its system HCC827 cells. The data set is described as above. The class given is cell-based. The note with it: HCC827 cells. The procedure: as §1
Since binding of both EGFR and c-MET arms to target receptor promoted RAA22/B09 receptor internalization in H1975 cells, we examined if the increased number of EGFR and c-MET receptors would affect internalization properties. The respective receptor levels determined by Western Blot were ˜33,000 for EGFR and ˜50,000 for c-MET in H1975 cells and ˜790,000 for EGFR and ˜523,000 for c-MET in HCC827 cells.

Data set [4] has as its target T1, Human EGFR (Homo sapiens, UniProt P00533). Kind of data set: ELISA species cross reactivity. The class given is binding. The note with it: antibody 10 to 0.002 μg/mL. The procedure:
(§2) Specificity for EGFR and cMET species paralogs and closely related family members was determined by ELISA. Briefly, antigen solutions were prepared in PBS at 1 μg/mL and 50 microliters was coated onto half area ELISA assay plates. Plates were washed and blocked with 1% BSA in PBS containing 0.005% Tween-20 (PBS-T) for one hour at room temperature. The wells were washed 4 times in PBS-T. As set out in FIG. 3, the primary antibodies used where: R374 (a non-binding IgG1 isotype control antibody), B09 (anti-cMET antibody), QD6 (anti-EGFR antibody), RAA22 (anti-EGFR antibody), QD6/B09 (bispecific EGFR/c-MET DuetMAb), RAA22/B09 (bispecific EGFR/c-MET DuetMAb), PaniX (anti-EGFR antibody), MetMab (anti-cMET antibody) and Mab11311 (anti-HER4 antibody). Wells were incubated with 50 microliters of the indicated primary antibodies diluted in PBS-T in a 1:3 dilution series, starting at 10 μg/mL and ending at 0.002 μg/mL, except for the HER4 binding mAb control, MAB1131, for which the series started at 1 μg/mL. The wells were washed 4 times in PBS-T, then 50 μl of goat anti-human Fab HRP-labeled secondary antibody, diluted 1:5000 in PBS-T, was added to each well and incubated for one hour at room temperature. […] 50 microliters of TMB stop solution was added to all wells and the absorbance was read at 450 nm on a SpectraMax M5 microplate reader. Data were analyzed in the SoftMax Pro 5 software and plotted using GraphPad Prism 7 graphing software.
(§3) To determine the species cross reactivity, ELISA assays were carried out as described above. […] There was no detectable binding of any of the antibodies to mouse cMET.
In general terms: ELISA stands for enzyme-linked immunosorbent assay.

Data set [5] concerns the target T2, Mouse EGFR (Mus musculus, UniProt Q01279).
T2 construct: purchased SinoBiological 51091-M08H
Kind of data set: ELISA species cross reactivity. It counts as binding. The procedure: as §2, §3

Data set [6] deals with Cynomolgus monkey EGFR. Nature of the data set: ELISA species cross reactivity. The class given is binding. The procedure:
as §2, §3

Data set [7] addresses T1, Human EGFR. Nature of the data set: SPR (BIAcore T200) antibody capture kinetics. The settings on record: 25° C. It counts as binding. The procedure: (§4) Mouse anti-human IgG was immobilized on a CM4 sensor chip with a final surface density of ˜2000 resonance units (RUs). A reference flow cell surface was also prepared on this sensor chip using identical immobilization protocol. Test and control article antibodies were prepared at 5-20 nM in instrument buffer (HBS-EP buffer; 0.01M HEPES, pH 7.4, 0.15M NaCl, 3 mM EDTA, and 0.005% P-20), along with 3-fold serial dilutions of purified EGFR (0.27-200 nM human, 0.4-900 nM cyno, and 4-1000 nM murine) or cMET proteins (0.27 to 66 nM human and 0.27-22 nM cyno) in instrument buffer. A sequential approach was utilized for kinetic measurements. Antibodies were first injected over the capture surface, at a flow rate of 10 μL/minute. Once the binding of the captured antibody stabilized, a single concentration of the analyte was injected over both capture and reference surfaces, at a flow rate of 75 μL/minute. The resulting binding response curves yielded the association phase data. Following the injection of analyte, the flow was then switched back to instrument buffer for 15 minutes to permit the collection of dissociation phase data, followed by a 1-minute pulse of 10 mM glycine, pH 1.5, to regenerate the antibody-captured surface on the chip. Binding responses against test and control article antibodies were recorded from duplicate injections of each concentration of analyte. In addition, several buffer injections were interspersed throughout the injection series. Select buffer injections were used along with the reference cell responses to correct the raw data sets for injection artifacts and/or nonspecific binding interactions, commonly referred to as “double referencing”. Corrected binding data were globally fit to a 1:1 binding model (Biacore T200 Evaluation software 2.0, GE Healthcare, Pittsburgh, PA).

The target of data set [8] is T2, Mouse EGFR. Nature of the data set: SPR (BIAcore T200) antibody capture kinetics. It counts as binding. The note with it: 25° C. The procedure:
as §4

Data set [9] concerns Cynomolgus monkey EGFR. Nature of the data set: SPR (BIAcore T200) antibody capture kinetics. It counts as binding. The note with it: 25° C. The procedure: as §4
In general terms: SPR reads the build-up and loss of mass on a sensor chip optically.

For the molecule ABT-414, in [1] (Phase II trials, tolerated doses), the efficacy entry is “limited efficacy at tolerated doses”. In addition, the ocular toxicities result in [1] (treated patients) is on record as “concerning ocular toxicities were frequently observed in treated patients”.

B1: B09/IgG: single-arm specific control antibody molecule with B09 cMET arm (antibody, V domains shown)
VH: QVQLVQSGAEVKKPGASVKVSCKASGYTFTDYYIHWVRQATGQGLEWMGWMNPNSGNTGYAQKFQGRVTMTRDTSISTAYMELSSLRSEDTAVYYCARGQGYTHSWGQGTMVTVSS
VL: DIQMTQSPSTLSASVGDRVTITCRASEGIYHWLAWYQQKPGKAPKLLIYKASSLASGVPSRFSGSGSGTEFTLTISSLQPDDFATYYCQQYSNYPPTFGGGTKLEIK
modifications: left off: another chain or arm of the molecule; a dimerising Fc or GST; small tags and cut ends
As for B1, the internalization profile entry is reported as “very small level of internalization” in data set [2] and “dissociates from cell membrane” in data set [3].

B2: RAA22/IgG: single-arm specific control antibody molecule with RAA22 EGFR arm (antibody, V domains shown)
VH: QVQLVQSGAEVKKPGSSVKVSCKASGGTFSDNDFSWVRQAPGQGLEWMGAIVAVFRTETYAQKFQDRVKITADISTRTTYMELSSLRSEDTAVYYCARRLMSAISGPGAPLLMWGQGTLVTVSS
VL: QSALTQPRSVSGSPGQSVTISCTGTSSDVGGYNYVSWYQQHPGKAPKLMIYDVSKRPSGVPDRFSGSKSGNTASLTISGLQAEDEADYYCSSYTSSDTLEIFGGGTKLTVL
For B2, in data set [2], the “number of molecules, fold less than for the RAA22-B09 DuetMab (based on fluorescent intensity)” value turned out to be 10.98 fold and the internalization profile result is recorded as “rapid internalization”. Besides, the “intensity profiles, fold lower than RAA22/B09” value in data set [3] was roughly 10 fold.

B3: QD6/IgG: single-arm specific control antibody molecule with QD6 EGFR arm (antibody, V domains shown)
VH: B2 VH with F55V
VL: B2 VL with K55E, S91F
As for B3, in data set [2], the internalization profile entry was “near-identical internalization time course as the QD6/B09 DuetMab”.

B4: QD6 IgG: high affinity anti-EGFR IgG1 antibody clone, VH SEQ ID NO: 18, VL SEQ ID NO: 22 (antibody, V domains shown)
VH: B2 VH with F55V
VL: B2 VL with K55E, S91F
Turning to B4, the ELISA binding result in [4], in [5] and in [6] was “gave robust signals” each time. For the same molecule, the Koff is 0.000292 s⁻¹ in [7], 0.000735 s⁻¹ in data set [8] and 0.000288 s⁻¹ in [9]. Further, the results for the Kon in [7] (1:1 binding model), in data set [8] and in data set [9] were 148000 M⁻¹ s⁻¹, 167000 M⁻¹ s⁻¹ and 114000 M⁻¹ s⁻¹, respectively.
